Patent publication US20260028421A1 (JIANGSU HENGRUI PHARMACEUTICALS, published 2026)
Where a chain is given by its changes, count along the chain named. One block for each binder: values may come before it.

What was measured:
[1] = target: T1, Human GUCY2C protein on cells (HCT116/hGUCY2C, HT-55, T84, LS1034, LS174T) (human, UniProt P25092 24-1073); test: flow cytometry on HCT116/hGUCY2C cells, PE anti-human IgG Fc secondary antibody
T1 construct: also called GUCY2C on the cell surface

[2] = target: T2, hGUCY2C ECD-His (human, UniProt P25092 24-430); test: SPR Biacore, antibody captured
T2 construct: also called human GUCY2C protein
Description: To test the affinity of the GUCY2C monoclonal antibodies of the present disclosure for GUCY2C, in this test example, the instruments Biacore 8K and Biacore T200 were used to detect the ability of the antibodies to bind to hGUCY2C-ECD-His (SEQ ID NO: 3). The specific method is as follows: The antibody was affinity-captured using a Protein A biosensor chip conjugated with an anti-human antibody, then a solution containing GUCY2C Protein flowed on the surface of the chip, and reaction signals were detected in real time with an instrument to obtain association and dissociation curves. After dissociation was completed for each cycle, the biosensor chip was washed with 10 mM glycine-hydrochloric acid (pH 1.5) for regeneration. Data fitting was performed using a 1:1 model.

[3] = target: hCTLA4 (human, UniProt P16410 36-161); test: ELISA
Sequence of hCTLA4 (P16410 36-161 limits assumed): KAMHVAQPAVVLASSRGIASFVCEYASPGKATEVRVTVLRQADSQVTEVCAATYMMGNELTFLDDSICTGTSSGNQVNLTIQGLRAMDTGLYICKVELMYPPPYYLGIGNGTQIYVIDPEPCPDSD

[4] = target: hPDL1 (human, UniProt Q9NZQ7 19-238); test: ELISA
Sequence of hPDL1 (Q9NZQ7 19-238 limits assumed): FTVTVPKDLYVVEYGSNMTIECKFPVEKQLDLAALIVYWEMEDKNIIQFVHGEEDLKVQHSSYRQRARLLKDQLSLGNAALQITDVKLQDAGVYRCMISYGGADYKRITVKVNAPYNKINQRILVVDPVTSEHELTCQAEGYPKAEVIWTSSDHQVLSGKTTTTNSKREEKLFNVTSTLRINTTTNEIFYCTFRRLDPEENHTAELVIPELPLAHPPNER

[5] = target: hTSLP (human, UniProt Q969D9 29-159); test: ELISA
[6] = target: hIL5 (human, UniProt P05113 20-134); test: ELISA

EC50 (read off the curve) [1]: ~1 nM | Kd [2]: 5.06 nM | koff [2]: 0.000233 s⁻¹ | kon [2]: 46000 M⁻¹ s⁻¹
B1: P1-D3 CHI (antibody, human IgG1, kappa, V domains shown)
VH: QIQLIQSGPELKKPGETVKISCKASGYTFTTYGMSWVKQAPGKGLKWMGWINTYSGVPTYADDFKGRFAFSLETSANTAYLQINNLKNEDTATYFCARRGYSNLYYYALDYWGQGASVTVSS
VL: QIVLTQSPAIMSASPGEKVTMTCSASSSVNYMHWYQQKSGTSPKRWIYDTSKLASGVPTRFSGSGSGTSYSLTISSMEAEDAATYFCQQWSSNPSTFGGGTKLEIKR
notes: chimeric

EC50 (read off the curve) [1]: ~0.7 nM | Kd [2]: 0.92 nM | koff [2]: 0.00018 s⁻¹ | kon [2]: 195000 M⁻¹ s⁻¹
B2: P1-D2 CHI (antibody, human IgG1, kappa, V domains shown)
VH: EFQLQQSGPELVKPGASVKISCKASGYSFTDHNMNWVKQSNGKSLEWIGVINPKYGTISNNQKFKGKATLTVDQSSSTAYMQLNSLTAEDSAVYYCARDDYPNYFDYWGQGTTLTVSS
VL: QIVLTQSPAIMSASPGEKVTISCSANSSVNYIYWYQQKPGSSPKPWIYRTSNLASGVPARFSGSGSGTSYSLTISSMEAEDAATYYCQQYHSFPPTFGGGTKLEIKR
notes: chimeric

EC50 [3]: 6 nM | EC50 [4]: 1.3 nM
B3: PL-14 (bispecific antibody)
chain 1: not shown
chain 2: DIVLTQSPASLAVSPGQRATITCRASESVSIHGTHLMHWYQQKPGQPPKLLIYAASKLESGVPARFSGSGSGTDFTLTINPVEAEDTANYYCQQSFEDPLTFGQGTKLEIKRTVASGIPPKIECLPIDISIDEGKVLTVASAFTGEPTPEVTWSTGGRKIHSQEQGRFHIENTDDSTTLTIKDVQKQDGGLYTLTLRNEFGSDSATVNIHIRSI
chain 3: not shown
chain 4: not shown

EC50 [3]: 6.5 nM | EC50 [4]: 1.6 nM
B4: PL-19 (bispecific antibody)
chain 1: not shown
chain 2: B3 chain 2 with A142C
chain 3: not shown
chain 4: not shown

EC50 [3]: 6.2 nM | EC50 [4]: 1.4 nM
B5: PL-17 (bispecific antibody)
chain 1: not shown
chain 2: B3 chain 2
chain 3: not shown
chain 4: not shown

EC50 [3]: 6.7 nM | EC50 [4]: 1.6 nM
B6: PL-18 (bispecific antibody)
chain 1: not shown
chain 2: B3 chain 2 with V136C
chain 3: not shown
chain 4: not shown

EC50 [3]: 3.2 nM | EC50 [4]: 1.4 nM
B7: PL-15 (bispecific antibody)
chain 1: not shown
chain 2: B3 chain 2 with V136C
chain 3: not shown
chain 4: not shown

EC50 [5]: 3.23 nM | EC50 [6]: 17.4 nM
B8: HJ-3 (bispecific antibody)
chain 1: not shown
chain 2: DIQMTQSPSSVSASVGDRVTITCRASQDIANYLSWYQQKPGKSPKLLIYGTSNLEVGVPSRFSGSRSGTDFTLTISSLQPEDFATYYCLQDKEFPRTFGGGTKVEIKGGGGSSGAPRFLTRPLAFVVSVGKDATLSSQIVGNPTPQVSWEKDKQPVTAGARFRLAQDGDLYRLKILDLQLSDSGQYVSRARNAIGEAFACLGLQVDAEA
chain 3: EVQLVQSGAEVKKPGSSVKVSCKASGYTFSNYLIEWVRQAPGQGLEWIGVIDPGVGDTNYNENFKGRATLTADKSTSTAYIELSSLRSEDTAVYYCAREDNTGTAFDYWGQGTTVTVSSASTKGPSVFPLAPSSKSTSGGTAALGCLVKDYFPEPVTVSWNSGALTSGVHTFPAVLQSSGLYSLSSVVTVPSSSLGTQTYICNVNHKPSNTKVDKKVEPKSCDKTHTCPPCPAPEAAGGPSVFLFPPKPKDTLMISRTPEVTCVVVDVSHEDPEVKFNWYVDGVEVHNAKTKPREEQYNSTYRVVSVLTVLHQDWLNGKEYKCKVSNKALPAPIEKTISKAKGQPREPQVCTLPPSREEMTKNQVSLSCAVKGFYPSDIAVEWESNGQPENNYKTTPPVLDSDGSFFLVSKLTVDKSRWQQGNVFSCSVMHEALHNHYTQKSLSLSPGKDYKDDDDK
chain 4: SIVMTQTPLSLSVTPGQPASISCKASQSVSSDVTWYLQKPGQSPQLLIYYVSEHYTGVPDRFSGSGYGTDFTLKISRVEAEDVGVYYCQQHHRFPLTFGQGTKLEIKRTVAAPSVFIFPPSDEQLKSGTASVVCLLNNFYPREAKVQWKVDNALQSGNSQESVTEQDSKDSTYSLSSTLTLSKADYEKHKVYACEVTHQGLSSPVTKSFNRGEC

EC50 [5]: 2.88 nM | EC50 [6]: 37 nM
B9: HJ-6 (bispecific antibody)
chain 1: not shown
chain 2: B8 chain 2 with R121C, L123K, F125S, T144F, A160V, I194H
chain 3: EVQLVQSGAEVKKPGSSVKVSCKASGYTFSNYLIEWVRQAPGQGLEWIGVIDPGVGDTNYNENFKGRATLTADKSTSTAYIELSSLRSEDTAVYYCAREDNTGTAFDYWGQGTTVTVSSASTKGPSVFPLAPSSKSTSGGTAALGCLVKDYFPEPVTVSWNSGALTSGVHTFPAVLQSSGLYSLSSVVTVPSSSLGTQTYICNVNHKPSNTKVDKKVEPKSCDKTHTCPPCPAPEAAGGPSVFLFPPKPKDTLMISRTPEVTCVVVDVSHEDPEVKFNWYVDGVEVHNAKTKPREEQYNSTYRVVSVLTVLHQDWLNGKEYKCKVSNKALPAPIEKTISKAKGQPREPQVCTLPPSREEMTKNQVSLSCAVKGFYPSDIAVEWESNGQPENNYKTTPPVLDSDGSFFLVSKLTVDKSRWQQGNVFSCSVMHEALHNHYTQKSLSLSPGK
chain 4: B8 chain 4

EC50 [5]: 3.33 nM | EC50 [6]: 18.7 nM
B10: HJ-8 (bispecific antibody)
chain 1: not shown
chain 2: B8 chain 2 with G108R, G109T, G110V, G111A, L123K, F125S, T144F, A160V, I194H
chain 3: B9 chain 3
chain 4: B8 chain 4

EC50 [5]: 2.18 nM | EC50 [6]: 17.7 nM
B11: HJ-7 (bispecific antibody)
chain 1: not shown
chain 2: B8 chain 2 with L123K, F125S, S137C, T144F, A160V, S188C, I194H
chain 3: B9 chain 3
chain 4: B8 chain 4

EC50 [5]: 3 nM | EC50 [6]: 9.46 nM
B12: HJ-11 (bispecific antibody)
chain 1: not shown
chain 2: DIQMTQSPSSVSASVGDRVTITCRASQDIANYLSWYQQKPGKSPKLLIYGTSNLEVGVPSRFSGSRSGTDFTLTISSLQPEDFATYYCLQDKEFPRTFGGGTKVEIKRTVASSGCPRFLTRPKASVVSVGKDATLSCQIVGNPFPQVSWEKDKQPVTAGVRFRLAQDGDLYRLKILDLQLSDSGQYVCRARNAHGEAFACLGLQVDAEA
chain 3: B9 chain 3
chain 4: B8 chain 4

EC50 [5]: 2.64 nM | EC50 [6]: 16 nM
B13: HJ-5 (bispecific antibody)
chain 1: not shown
chain 2: B8 chain 2 with L123K, F125S, T144F, A160V, I194H
chain 3: B9 chain 3
chain 4: B8 chain 4

EC50 [5]: 3.17 nM | EC50 [6]: 20.8 nM
B14: HJ-10 (bispecific antibody)
chain 1: not shown
chain 2: B12 chain 2 with C115A
chain 3: B9 chain 3
chain 4: B8 chain 4

EC50 [5]: 3.18 nM | EC50 [6]: 10.9 nM
B15: HJ-9 (bispecific antibody)
chain 1: not shown
chain 2: B12 chain 2 with C115A, R121C, C137S, C188S
chain 3: B9 chain 3
chain 4: B8 chain 4

EC50 (read off the curve) [1]: ~0.6 nM | Kd [2]: 8.64 nM | koff [2]: 0.000279 s⁻¹ | kon [2]: 32300 M⁻¹ s⁻¹
B16: P1-F10 CHI (antibody, human IgG1, kappa, V domains shown)
VH: EVQLVESGGGLVKPGGSLKLSCAASGFAFSDYGMHWVRQAPEKGLEWVAHISSGSSTIYYADTVKGRFTISRDNVKNTLFLQMTSLRSEDTAMYYCARSRNYYGSRVFDYWGQGTPLTVSS
VL: QIVLTQSPALMSVSPGEKVTMTCSASSSVNYMYWYQQKPRSSPKPWIYLTSNLASGVPARFSGSGSGTSYSLTISSMEAEDAATYYCQQWNSNPPTFGSGTKLEIKR
notes: chimeric

EC50 (read off the curve) [1]: ~0.7 nM | Kd [2]: 19.6 nM | koff [2]: 0.000399 s⁻¹ | kon [2]: 20300 M⁻¹ s⁻¹
B17: P1-D9 CHI (antibody, human IgG1, kappa, V domains shown)
VH: B16 VH with A28S, V48I, V75A, V107I, P116T
VL: B16 VL with L10R, V13A, N30S, N91S
notes: chimeric
